According to US10160812B2, “Bispecific HER2 antibodies” (MedImmune, LLC, priority 2014, dated 2018):

Assays:
ZR-75-1 = assay: In vitro cytotoxic activity (Cell Titer Glo); assay type: cell-based, human; conditions: ZR-75-1, 3 to 4 days
Description: (§3) Briefly, cells were harvested, resuspended, and plated in serum-containing culture media at a density of 5,000 to 20,000 per well (depending on the growth kinetics of each cell line) of 96-well plates in a volume of 100 μL. A 2× concentration of each dose of antibody or ADC to be tested was prepared by diluting the test articles in culture medium. One hundred microliters of each test article was added to cells in triplicate such that the final dose curve ranged from 5 nM down to 0.08 pM in a stepwise 1:4 serial dilution series. The treated cells were incubated at 37° C./5% CO2 for 3 to 4 days, depending on the growth kinetics of each particular cell line. Cell viability was determined using Cell Titer Glo according to manufacturer's instructions. Data are analyzed by the GraphPad Prism software and presented as percent growth inhibition relative to the untreated control.

T47D = assay: In vitro cytotoxic activity (Cell Titer Glo); assay type: cell-based, human; conditions: 3 to 4 days
Description: as §3

MCF-7 = assay: In vitro cytotoxic activity (Cell Titer Glo); assay type: cell-based, human; conditions: MCF-7, 3 to 4 days
Description: as §3

[1] = system: NCI-N87 and MDA-MB-468 cells co-culture; assay: Bystander effect co-culture assay (FACS); assay type: cell-based, human; conditions: co-culture of HER2-overexpressing NCI-N87 and HER2-null MDA-MB-468, 5 nM, 4 days
Description: NCI-N87 cells were stably transfected with green fluorescent protein (GFP) and MDA-MB-468 cells were stably transfected with red fluorescent protein (RFP). Both cell lines were harvested, washed, resuspended in culture media and then seeded in the same well of a 6-well plate as co-culture. As a control, each cell line was seeded in a different 6-well plate as single culture (FIG. 28A). To adjust to different growth kinetics, NCI-N87 cells were seeded at 5×10^5 cells/well and MDA-MB-468 cells were seeded at 2×10^5 cells/well. Cells were incubated for 2 days at 37° C./5% CO2. Media were aspirated and fresh media containing 5 nM of antibody or ADC to be tested was added to cells and the plates were incubated for 4 days at 37° C./5% CO2. At the end of treatment, cells in each well were collected, washed, resuspended in 100 μL of ice-cold FACS buffer and then fixed with 2% PFA. Cells were analyzed by a BD LSR II machine and BD FACSDiva™ software. Data were analyzed with FlowJo software.

mouse Her2 [2] = target: T1, mouse Her2 (Mus musculus, UniProt P70424); assay: ProteOn SPR binding of 39S to captured Mouse Her2; conditions: Mouse Her2 control
Source text: The variant nomenclature denotes types of variants (KO/KI) and the swapped regions with amino acid numbering. Amino acid positions were denoted basing on the numbering scheme of mature human HER2 sequences without its signal peptide. The expression levels of all variants were monitored by an anti-His polyclonal antibody. The binding profiles of 39S to these variants were characterized using a SPR based instrument ProteOn™ by capturing variants on sensor surfaces using anti-human and mouse Her2 polyclonal antibodies.
The binding characteristics of 39S to chimeric human/mouse variants were studied using a ProteOn™ XPR36 instrument (BioRad). Standard amine coupling was used to immobilize an anti-human or mouse Her2 polyclonal antibody (R&D System) in 10 mM sodium acetate (pH 5.0) to the surface of a GLC biosensor chip at ˜5000 resonance units (RU) for each channel. The chimeric proteins in cell culture supernatant were injected and captured by anti-human or mouse polyclonal antibodies onto the GLC surface with a ˜200RU response. Anti-HER2 mAb 39S was diluted in phosphate-buffered saline (PBS) (pH 7.4) with 0.005% Tween-20 from 10 nM to 0.625 nM (1:2 dilution), and injected at 100 μL/min for 180 sec with a 600-second dissociation time. Expression levels of chimeric variants were monitored by flowing anti-His polyclonal antibody (MedImmune) under the same conditions as injecting 39S. […]
Target sequence in this assay (P70424 23-1256): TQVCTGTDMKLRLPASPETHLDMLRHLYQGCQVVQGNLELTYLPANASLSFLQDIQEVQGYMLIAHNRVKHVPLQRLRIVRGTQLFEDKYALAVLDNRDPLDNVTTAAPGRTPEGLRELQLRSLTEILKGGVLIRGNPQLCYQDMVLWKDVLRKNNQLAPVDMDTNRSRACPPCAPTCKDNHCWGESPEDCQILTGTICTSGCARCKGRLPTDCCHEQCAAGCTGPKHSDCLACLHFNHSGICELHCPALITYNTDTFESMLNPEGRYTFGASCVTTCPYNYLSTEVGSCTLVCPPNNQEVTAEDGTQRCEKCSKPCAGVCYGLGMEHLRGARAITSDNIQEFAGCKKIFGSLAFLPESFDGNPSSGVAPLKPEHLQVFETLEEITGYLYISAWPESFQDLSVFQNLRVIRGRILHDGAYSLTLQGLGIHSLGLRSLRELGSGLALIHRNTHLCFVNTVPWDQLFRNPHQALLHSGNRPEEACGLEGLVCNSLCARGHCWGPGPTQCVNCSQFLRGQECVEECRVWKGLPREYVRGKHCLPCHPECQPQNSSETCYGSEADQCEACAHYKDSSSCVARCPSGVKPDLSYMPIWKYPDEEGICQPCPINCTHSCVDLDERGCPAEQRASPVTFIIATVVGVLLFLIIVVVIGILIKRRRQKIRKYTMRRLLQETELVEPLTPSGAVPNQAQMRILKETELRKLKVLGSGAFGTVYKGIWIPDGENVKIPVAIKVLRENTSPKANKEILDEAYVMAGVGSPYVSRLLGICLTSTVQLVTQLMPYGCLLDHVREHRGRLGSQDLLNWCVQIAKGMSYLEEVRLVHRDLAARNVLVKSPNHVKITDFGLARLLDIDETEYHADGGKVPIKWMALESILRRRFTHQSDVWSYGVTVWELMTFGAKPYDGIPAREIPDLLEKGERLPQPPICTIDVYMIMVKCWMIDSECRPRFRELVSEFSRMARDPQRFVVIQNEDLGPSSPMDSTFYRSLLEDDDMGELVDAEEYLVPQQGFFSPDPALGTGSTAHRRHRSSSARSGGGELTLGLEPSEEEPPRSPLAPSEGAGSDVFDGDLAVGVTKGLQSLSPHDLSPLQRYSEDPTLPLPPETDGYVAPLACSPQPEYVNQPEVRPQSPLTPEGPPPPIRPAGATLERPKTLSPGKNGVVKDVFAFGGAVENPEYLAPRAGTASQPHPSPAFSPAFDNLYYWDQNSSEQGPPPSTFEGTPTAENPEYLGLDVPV

MCF-7 cells = assay: Ligand-dependent proliferation inhibition assay; assay type: cell-based, human; conditions: in combination with trastuzumab or pertuzumab
Description: Cell viability was determined using Cell Titer Glo from Promega according to manufacturer's instructions.

[3] = target: T2, HER2:HER3 heterodimerization (Homo sapiens, UniProt P04626); assay: Disruption of HER2:HER3 heterodimerization (IP/Western, T47D cells); assay type: cell-based; conditions: 500 nM antibody, heregulin-b1 8 ng/mL
T2 construct: endogenous in cells; host or cells: T47D
Description: Cells were seeded at a density of 1×10^6 cells/well in a 6-well plate and then incubated overnight at 37° C./5% CO2. […] After pre-treatment, heregulin-β1 was added at a final concentration of 8 ng/mL and cells were incubated for 5 min at 37° C./5% CO2. Cells were then washed twice with ice-cold 1×PBS, lysed and immune-precipitated using mouse anti-human HER2 (clone 44E7) antibody and the Pierce Classic IP Kit from Thermo Scientific according to manufacturer's instructions. Immune-precipitated protein samples were eluted in Laemmli buffer containing 2-mecaptoethanol and analyzed by Western blot using standard protocol. Rabbit anti-human HER2 (clone 29D8) antibody was used to detect HER2 and rabbit anti-human HER3 (C-17) polyclonal antibody was used to detect HER3 in the Western blot analysis.

HER2 = HER2 (Homo sapiens, UniProt P04626); assay: Capture ELISA binding specificity / species cross-reactivity; parameters: recombinant extracellular domain proteins: human EGFR, human HER2, human HER3, human HER4, mouse Her2, or cynomolgus monkey Her2; conditions: recombinant extracellular domain protein
Source text: (§1) To determine whether 39S retains the binding specificity and species cross-reactivity of its parental antibody AZ1.39.1, binding of 39S to the receptors of human ErbB family (EGFR, HER2, HER3, and HER4), the mouse Her2, and the cynomolgus monkey Her2 was examined by capture ELISA. Briefly, 96-well plates were coated with one of the following recombinant extracellular domain proteins: human EGFR, human HER2, human HER3, human HER4, mouse Her2, or cynomolgus monkey Her2. Antibody to be tested was prepared by diluting in a stepwise 1:3 serial dilution ranging from 50 nM down to 0.28 pM and then added to the wells in duplicate. After one hour of incubation, plates were washed, and goat anti-human IgG Fab HRP-conjugated secondary antibody was added to each well and the plates were incubated for 1 hour. The plates were washed and TMB substrate was added and incubated for 5-20 min to allow color development. The stop solution was added to the wells at the end of reaction and the plates were read at 450 nm. Binding signal (absorbance at 450 nm) was plotted against antibody concentration using Prism software.
(§2) Binding specificity and species cross-reactivity of bispecific antibodies to the recombinant extracellular domain protein of human EGFR, human HER2, human HER3, human HER4, mouse Her2, or cynomolgus monkey Her2 were determined by capture ELISA as described in Example 1. […]

mouse Her2 [4] = target: T1, mouse Her2; assay: as above; parameters: recombinant extracellular domain proteins: human EGFR, human HER2, human HER3, human HER4, mouse Her2, or cynomolgus monkey Her2; conditions: recombinant extracellular domain protein
Source text: as §1, §2
Target sequence in this assay (P70424 23-653 limits assumed): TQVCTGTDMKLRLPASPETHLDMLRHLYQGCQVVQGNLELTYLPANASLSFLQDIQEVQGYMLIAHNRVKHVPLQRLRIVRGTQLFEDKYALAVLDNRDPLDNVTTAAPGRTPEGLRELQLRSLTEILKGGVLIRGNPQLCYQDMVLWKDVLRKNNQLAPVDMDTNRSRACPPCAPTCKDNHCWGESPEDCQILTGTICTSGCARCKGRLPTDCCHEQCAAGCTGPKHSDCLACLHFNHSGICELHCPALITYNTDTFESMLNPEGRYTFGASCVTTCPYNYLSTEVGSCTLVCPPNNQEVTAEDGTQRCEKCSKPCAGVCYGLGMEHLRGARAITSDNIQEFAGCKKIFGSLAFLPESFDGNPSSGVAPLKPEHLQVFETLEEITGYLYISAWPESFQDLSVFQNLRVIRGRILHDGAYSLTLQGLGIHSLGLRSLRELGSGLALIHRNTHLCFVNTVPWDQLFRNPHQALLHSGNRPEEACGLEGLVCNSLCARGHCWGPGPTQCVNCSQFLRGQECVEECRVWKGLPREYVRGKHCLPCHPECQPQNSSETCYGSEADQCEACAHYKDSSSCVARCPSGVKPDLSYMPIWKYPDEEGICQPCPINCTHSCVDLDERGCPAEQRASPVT

Molecule: T-DM1 [reference compound]
- In vitro potency (EC50 in pM) (ZR-75-1): Inactive
- In vitro potency (EC50 in pM) (T47D): Inactive
- In vitro potency (EC50 in pM) (MCF-7): Inactive
- bystander effect [1]: does not have bystander effect

B1: 39S: lead optimized monoclonal antibody derived from the 1.39.1 antibody; VH SEQ ID NO:15, VL SEQ ID NO:16 (antibody, V domains shown)
VH: EVQLVESGGGLVKPGGSLRLSCAASGFTFSSYSMSWVRQAPGKGLEWVSSISSSSSYIYYADSVKGRFTISRDNAKNSLYLQMNSLRAEDTAVYYCARGGDAYNYYYFDYWGQGTLVTVSS
VL: DIVMTQTPLSLSVTPGQPASISCKSSQSVFFRSNNKNILAWYLQKPGQPPQLLIYWASSRESGVPDRFSGSGSGTDFTLKISRVEAEDVGVYYCQQYFGSPFTFGPGTKVDIK
- The binding affinity of 39S (KD) (mouse Her2 [2]): No
- inhibition of ligand-dependent proliferation in combination (MCF-7 cells): additive or synergistic inhibition
- disruption of HER2:HER3 heterodimerization induced by ligand stimulation [3]: can disrupt
- binding by capture ELISA (HER2): can bind
- binding by capture ELISA (mouse Her2 [4]): not
